Laboratory results published in US20180194853A1 (published 2018).

Columns and labels:
recombinant human IL-2Rβ = target: T1, recombinant human IL-2Rβ (human, UniProt P14784 27-240); experiment: SPR, receptor chain immobilised on the chip, antibody flowed over
T1 construct: Recombinant chain immobilised on the SPR chip and used as ELISA antigen; also called CD122; interleukin 2 receptor β
T1 sequence (looked up): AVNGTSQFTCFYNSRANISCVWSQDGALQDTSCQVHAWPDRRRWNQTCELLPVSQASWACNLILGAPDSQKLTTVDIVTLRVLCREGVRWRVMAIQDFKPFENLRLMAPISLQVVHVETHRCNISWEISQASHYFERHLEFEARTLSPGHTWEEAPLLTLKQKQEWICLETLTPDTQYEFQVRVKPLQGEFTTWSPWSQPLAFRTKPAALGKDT
Procedure: (§1) Association/dissociation of the anti-IL-2Rβ/γc bispecific antibody to/from the receptor chains was measured in Surface Plasmon Resonance using recombinant IL-2Rβ or γc chains immobilised on a chip, and flowing various concentrations of the antibody over the surface.

recombinant human γc = target: T2, recombinant human γc (human, UniProt P31785 23-262); experiment: as above
T2 construct: Recombinant chain immobilised on the SPR chip and used as ELISA antigen; also called common γ chain; CD132
T2 sequence (looked up): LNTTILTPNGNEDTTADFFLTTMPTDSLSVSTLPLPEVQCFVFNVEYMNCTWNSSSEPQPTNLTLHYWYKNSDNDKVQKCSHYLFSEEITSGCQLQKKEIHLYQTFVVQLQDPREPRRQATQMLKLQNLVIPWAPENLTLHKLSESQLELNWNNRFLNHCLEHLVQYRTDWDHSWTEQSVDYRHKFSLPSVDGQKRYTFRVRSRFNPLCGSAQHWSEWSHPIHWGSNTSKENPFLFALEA
Procedure: as §1

Kd (recombinant human IL-2Rβ): 101 nM | Kd (recombinant human γc): 79.8 nM
B1: bispecific anti-IL-2Rβ/γc antibody P2H7/P2B9 (bispecific antibody)
chain 1: not shown
chain 2: QVQLQESGPGLVKPSETLSLTCTVSGGSISSSSYYWGWIRQPPGKGLEWIGSIYYSGSTYYNPSLKSRVTISVDTSKNQFSLKLSSVTAADTAVYYCAGDILTGYALDYWGQGTLVTVSSGGGGSGGGGSGGGGSSYELTQPPSMSVSPGQTARITCSGDALPKQFAFWYQQKPGQAPVLVIYKDTERPSGIPERFSGSSSGTTVTLTITGVQAEDEADYYCQSPDSSGTVEVFGGGTKLTVLNSGAGTAAATHTCPPCPAPEAAGGPSVFLFPPKPKDTLMISRTPEVTCVVVDVSHEDPEVKFNWYVDGVEVHNAKTKPREEQYNSTYRVVSVLTVLHQDWLNGKEYKCKVSNKALPAPIEKTISKAKGQPREPQVCTLPPSRDELTKNQVSLSCAVKGFYPSDIAVEWESNGQPENNYKTTPPVLDSDGSFFLVSKLTVDKSRWQQGNVFSCSVMHEALHNHYTQKSLSLSPGK
